B1: HDV Ribozyme (parent)
chain: GGCCGGCAUGGUCCCAGCCUCCUCGCUGGCGCCGGCUGGGCAACAUUCCGAGGGGACCGUCCCCUCGGUAAUGGCGAAUGGGACCCA

The data set covers variants of B1. The data set is described as follows: self-cleavage, relative activity (ratio to wild type); higher = more cleavage; co-transcriptional.
GGCGGGCAUGGUCCCAGCCUCCUCGCUGGCGCCGGCUGGGCAAUAUUCCGAGGGGACCGUCCCCUCGGUAAUGGCGAAUGGGACCCA [C4G C44U]: the self-cleavage turned out to be 0.141.

For GGCCGGCAUGGUCCCAGCCUCCUCGCUGGCGCCGGCUGGGCAACAUUCCGAGGGGACCGUCCCCUCGUUAAUUGCGAAUGGGACCCA [G68U G73U], the self-cleavage turned out to be 0.0923.

Regarding GGCCGGCAUGGUCCCAGCCUCCUCGCUGGCGCCGGCUAGGCAACAUUCCGAGGGGACCGUCCCAUCGGUAAUGGCGAAUGGGACCCA [G38A C64A], the self-cleavage is 0.0678.

For GGCCGGCAUGGUCCCAGCCUCCUCGCUGGCGCCGGCUGGGCCACAUUCCGAGGGGACCGUCCCCUCGGUAAUGGCGAAUGGGACCAA [A42C C86A], the self-cleavage turned out to be 0.312.

On to GGCCGGCAUCGUCCCACCCUCCUCGCUGGCGCCGGCUGGGCAACAUUCCGAGGGGACCGUCCCCUCGGUAAUGGCGAAUGGGACCCA [G10C G17C], for which the self-cleavage is 0.208.

As to GGCCGGCAUGGUCCCAGCCUCCUCGCUGGCGCCGGCUGGGGAACAUUCCGAGGGGACCGACCCCUCGGUAAUGGCGAAUGGGACCCA [C41G U60A], the self-cleavage worked out at 0.733.

With GGCCGGGAUGGUCCCAGCCUCCUCGCUGGCACCGGCUGGGCAACAUUCCGAGGGGACCGUCCCCUCGGUAAUGGCGAAUGGGACCCA [C7G G31A], the self-cleavage was found to be 0.441.

For GGCCGGCCUGGUCCCAGCCUCCUCGCUGGCGCCGGCUGGGCAACAUUCCGAGGGGACCGUCCCCUCGGUAAUGGCGAAUGGGCCCCA [A8C A83C], the self-cleavage is 0.317.

For the variant GGCCGGCAUGGUCCCAGCCUCCUCGCUGGCGCCGGCUGGGCAACAUUCAGAGGGGACCGUCCCCUCGGUAAUGGCGAAUGGGACCGA [C49A C86G], the self-cleavage is 0.906.

For the variant GGCCGGCAUGGUCCCAGCCUCCUCGCUGGCGCCGGAUGGGCAACAUUCCGAGGGGACCGGCCCCUCGGUAAUGGCGAAUGGGACCCA [C36A U60G], the self-cleavage is 0.178.

GGCCGGCAUGGUCCCAGCCUCCUCGCUGGCGCCGGCUGGGCAACAUACCGAGGGGACCGUCCCCUCGGUAAUGGCGAUUGGGACCCA [U47A A78U]: the self-cleavage was 0.295.

As for GGCCGGCAUGGUCCCAGCCUACUCUCUGGCGCCGGCUGGGCAACAUUCCGAGGGGACCGUCCCCUCGGUAAUGGCGAAUGGGACCCA [C21A G25U], the self-cleavage came to 0.113.

Consider GGCCGGCAUGGUCCCAGCCUCCUCGCUGGCGCCGGCUGGGCAACAUUCCGAGGCGACUGUCCCCUCGGUAAUGGCGAAUGGGACCCA [G54C C58U], for which the self-cleavage worked out at 1.11.

As to GGCCGGCAUGGUCCCAGCCUCCUCGCUGGCGCCGGCUGGGCAACAUUCAGAGGGGACCGUCCCCUCGGUGAUGGCGAAUGGGACCCA [C49A A70G], the self-cleavage amounted to 0.689.

GGCCGGCAUGGUCCCAGCCUCCUCGCUGGCGCCGGCUGGGCAACAUUCCGAGGGGACCGUUCCCUCGGUAAUGGCGAGUGGGACCCA [C61U A78G]: the self-cleavage was 0.87.

For the variant GGCCGGCAUGGUCCCAGCCUCCUCGCUGGCGCCGGCUGGGCAACAUUCCGAGGGGACCGUCCCCUCGGAAAUGGUGAAUGGGACCCA [U69A C75U], the self-cleavage was 0.155.

Consider GGCCGGCAUGGUCCCAGCCUCCUCGCUGGCGCCGGCUGGGCAACAUUCCGAGGGGACCGUCCCCUCGGUAAUGGCGAUUGGGAGCCA [A78U C84G], for which the self-cleavage was 0.0396.

Regarding GGCCGGCAUGGUCCCAGCCUCCUCGCUGGCGCCGGCUGGGCAACAUACCGAGGGGACCGUCCCCUCGGUAAUGGCGCAUGGGACCCA [U47A A77C], the self-cleavage worked out at 0.

With GGCCGGCAUGGUCCCAGCCUCCUCGCUGGCGCCGGCUGGGCAACAUUCCGAGGGGACGGUCCCCUCGUUAAUGGCGAAUGGGACCCA [C58G G68U], the self-cleavage was found to be 0.959.

GGCCGGCAUGGUCCCAGCGUCCUCGCUGGCGCCGGCUGGGCAACAUUCCGAGGGGACCGUCCCCUCGGUAAUGGCGAAUGGGACCAA [C19G C86A]: the self-cleavage is 0.

In the case of GGCCGGUAUGGUCCCAGCCUCCGCGCUGGCGCCGGCUGGGCAACAUUCCGAGGGGACCGUCCCCUCGGUAAUGGCGAAUGGGACCCA [C7U U23G], the self-cleavage was found to be 0.332.

For GGCCGGCAUGGUCCGAGCCUCCUCGCUGGCGCCGGCUGGGCAACAUUCCGAGGGGACCGUCCGCUCGGUAAUGGCGAAUGGGACCCA [C15G C63G], the self-cleavage was 0.475.

Consider GGCCGGUAUGGUCCCAGCCUCCUCGCUGGCGCCGGCUGGGCAACAUUCCGAGGGGGCCGUCCCCUCGGUAAUGGCGAAUGGGACCCA [C7U A56G], for which the self-cleavage came out at 0.997.

For GGCCGGCAUGGUCCCAGCCUCCUCGCUGGCGCCGGCAGGGCAACAUUCCGAGGGGACCGUCCCCUCGGUAAUGGCCAAUGGGACCCA [U37A G76C], the self-cleavage is 0.203.

With GGCCGGCAUGGUCCCAGCCUCCUCGCCGGCGCCGGCUGGGCAAUAUUCCGAGGGGACCGUCCCCUCGGUAAUGGCGAAUGGGACCCA [U27C C44U], the self-cleavage was 0.19.

As to AGCCGGCAUGGUCCCAGCCUCCUCGCUGGCGCCGGCUGGGCCACAUUCCGAGGGGACCGUCCCCUCGGUAAUGGCGAAUGGGACCCA [G1A A42C], the self-cleavage came out at 0.0369.

For GGCCGGCAUGGUCCCAGCCUCCUCGCUGGCGCCGGCUGGGCAACAUUCCGAGGGGACCCUCCCCUCCGUAAUGGCGAAUGGGACCCA [G59C G67C], the self-cleavage came out at 0.929.

Consider GGCCGGCAUGGUCCCAGGCUCCUCGCUGGCGCCGGCUGGGCAACAUUCCGAGGGGACCGUCCCCUCGGUAAUGGAGAAUGGGACCCA [C18G C75A], for which the self-cleavage was 0.

In the case of GGCCGGCAUGGUCCCAGCCUCCUCGCUGGCGGCGGGUGGGCAACAUUCCGAGGGGACCGUCCCCUCGGUAAUGGCGAAUGGGACCCA [C32G C36G], the self-cleavage came to 0.0449.

Regarding GGCCGGCAUGGGCCCUGCCUCCUCGCUGGCGCCGGCUGGGCAACAUUCCGAGGGGACCGUCCCCUCGGUAAUGGCGAAUGGGACCCA [U12G A16U], the self-cleavage turned out to be 0.795.

In the case of GGCCGGCAUGGUCCCAGCCUCCUCCCUGGCGCCGGCUGGGCAACAUUCCGAGGGGACCGUCCCCUCGGUAAUGGCGAAUGGGACCCG [G25C A87G], the self-cleavage is 0.174.

Turning to GGCCGGCAUGGGCCCAGCCUCCGCGCUGGCGCCGGCUGGGCAACAUUCCGAGGGGACCGUCCCCUCGGUAAUGGCGAAUGGGACCCA [U12G U23G], the self-cleavage was determined as 0.256.

The record behind these values is the RNAGym collection of RNA variant scans (doi:10.7554/elife.80360).
